The experiment has as its target RBX1 (human, UniProt P62877 1-108). Nature of the experiment: cryo-EM structure.

B1: DDB1- and CUL4-associated factor 1 (DCAF1), full length, wild type (natural protein)
chain: not shown
In the case of B1, the binding result is on record as “binds”.

Values taken from publication PMC8591539 (The EMBO Journal, 2021).
